Assay results from the supplement of paper PMC11246515.
± gives the standard deviation of the averaged measurements.

Test: total protein half-life in vivo (active degradation + dilution); higher = more stable protein
[1] = E. coli NCM3722 delta-clpP delta-lon delta-hslV, growth: N-lim chemostat, doubling time 6 h
[2] = E. coli NCM3722 delta-clpP, growth: N-lim chemostat, doubling time 6 h
[3] = E. coli NCM3722 delta-hslV, growth: N-lim chemostat, doubling time 6 h
[4] = E. coli NCM3722 delta-lon, growth: N-lim chemostat, doubling time 6 h
[5] = E. coli NCM3722 delta-smpB, growth: N-lim chemostat, doubling time 6 h
[6] = wild type E. coli NCM3722, growth: C-lim chemostat, doubling time 3 h
[7] = wild type E. coli NCM3722, growth: C-lim chemostat, doubling time 6 h
[8] = wild type E. coli NCM3722, growth: N-lim chemostat, doubling time 6 h
[9] = wild type E. coli NCM3722, growth: N-lim chemostat, doubling time 12 h
[10] = wild type E. coli NCM3722, growth: C-lim chemostat, doubling time 12 h
[11] = wild type E. coli NCM3722, growth: P-lim chemostat, doubling time 12 h
[12] = wild type E. coli NCM3722, growth: P-lim chemostat, doubling time 6 h

| Sequence | total protein half-life in vivo [1] | total protein half-life in vivo [2] | total protein half-life in vivo [3] | total protein half-life in vivo [4] | total protein half-life in vivo [5] | total protein half-life in vivo [6] | total protein half-life in vivo [7] | total protein half-life in vivo [8] | total protein half-life in vivo [9] | total protein half-life in vivo [10] | total protein half-life in vivo [11] | total protein half-life in vivo [12] |
| --- | --- | --- | --- | --- | --- | --- | --- | --- | --- | --- | --- | --- |
| MNEFSILCRVLGSLYYRQPQDPLLVPLFTLIREGKLAANWPLEQDELLTRLQKSCDMTQVSADYNALFIGDECAVPPYRSAWVEGATEAEVRAFLSERGMPLADTPADHIGTLLLAASWLEDQSTEDESEALETLFSEYLLPWCGAFLGKVEAHATTPFWRTMAPLTRDAISAMWDELEEDSEE | 5.33 ± 0.97 h | 5.83 ± 1.6 h | 5.14 ± 0.17 h | 5.97 ± 1.5 h | 5.24 ± 0.65 h | 3.342 ± 0.021 h | 6.25 ± 0.39 h | 4.99 ± 0.71 h | 9.91 ± 0.97 h | – | – | – |
| MMNTEGNNGNKPLGLWNVVSIGIGAMVGAGIFALLGQAALLMEASTWVAFAFGGIVAMFSGYAYARLGASYPSNGGIIDFFRRGLGNGVFSLALSLLYLLTLAVSIAMVARAFGAYAVQFLHEGSQEEHLILLYALGIIAVMTLFNSLSNHAVGRLEVILVGIKMMILLLLIIAGVWSLQPAHISVSAPPSSGAFFSCIGITFLAYAGFGMMANAADKVKDPQVIMPRAFLVAIGVTTLLYISLALVLLSDVSALELEKYADTAVAQAASPLLGHVGYVIVVIGALLATASAINANLFAVFNIMDNMGSERELPKLMNKSLWRQSTWGNIIVVVLIMLMTAALNLGSLASVASATFLICYLAVFVVAIRLRHDIHASLPILIVGTLVMLLVIVGFIYSLWSQGSRALIWIIGSLLLSLIVAMVMKRNKTV | – | 6.11 h | – | – | – | – | – | – | – | – | – | – |
| MKIHTTEALMKAEISRRSLMKTSALGSLALASSAFTLPFSQMVRAAEAPVEEKAVWSSCTVNCGSRCLLRLHVKDDTVYWVESDTTGDDVYGNHQVRACLRGRSIRRRMNHPDRLKYPMKRVGKRGEGKFERISWDEALDTISDNLRRILKDYGNEAVHVLYGTGVDGGNITNSNVPYRLMNSCGGFLSRYGSYSTAQISAAMSYMFGANDGNSPDDIANTKLVVMFGNNPAETRMSGGGVTYYVEQARERSNARMIVIDPRYNDTAAGREDEWLPIRPGTDGALACAIAWVLITENMVDQPFLDKYCVGYDEKTLPANAPRNAHYKAYILGEGPDGIAKTPEWAAKITSIPAEKIIQLAREIGSAKPAYICQGWGPQRHSNGEQTSRAIAMLSVLTGNVGINGGNSGVREGSWDLGVEWFPMLENPVKTQISVFTWTDAIDHGTEMTATRDGVRGKEKLDVPIKFLWCYASNTLINQHGDINHTHEVLQDDSKCEMIVGIDHFMTASAKYCDILLPDLMPTEQEDLISHESAGNMGYVILAQPATSAKFERKPIYWMLSEVAKRLGPDVYQTFTEGRSQHEWIKYLHAKTKERNPEMPDYEEMKTTGIFKKKCPEEHYVAFRAFREDPQANPLKTPSGKIEIYSERLAKIADTWELKKDEIIHPLPAYTPGFDGWDDPLRKTYPLQLTGFHYKARTHSSYGNIDVLQQACPQEVWINPIDAQARGIRHGDTVRVFNNNGEMLIAAKVTPRILPGVTAIGQGAWLKADMFGDRVDHGGSINILTSHRPSPLAKGNPSHSNLVQIEKV | 6.47 ± 2.1 h | – | – | – | 4.94 h | – | 4.9 h | – | 3.57 h | 13.9 h | 3.5 h | – |
| MLSNDILRSVRYILKANNNDLVRILALGNVEATAEQIAVWLRKEDEEGFQRCPDIVLSSFLNGLIYEKRGKDESAPALEPERRINNNIVLKKLRIAFSLKTDDILAILTEQQFRVSMPEITAMMRAPDHKNFRECGDQFLRYFLRGLAARQHVKKG | 5.25 ± 0.12 h | – | – | 6.64 ± 0.089 h | 5.21 ± 0.48 h | 3.21 ± 0.69 h | 6.3 ± 0.61 h | 5.08 ± 0.49 h | 8.7 ± 0.92 h | 11.7 ± 1 h | – | 4.99 ± 0.15 h |
| MSNLSPDFVLPENFCANPQEAWTIPARFYTDQNAFEHEKENVFAKSWICVAHSSELANANDYVTREIIGESIVLVRGRDKVLRAFYNVCPHRGHQLLSGEGKAKNVITCPYHAWAFKLDGNLAHARNCENVANFDSDKAQLVPVRLEEYAGFVFINMDPNATSVEDQLPGLGAKVLEACPEVHDLKLAARFTTRTPANWKNIVDNYLECYHCGPAHPGFSDSVQVDRYWHTMHGNWTLQYGFAKPSEQSFKFEEGTDAAFHGFWLWPCTMLNVTPIKGMMTVIYEFPVDSETTLQNYDIYFTNEELTDEQKSLIEWYRDVFRPEDLRLVESVQKGLKSRGYRGQGRIMADSSGSGISEHGIAHFHNLLAQVFKD [P0ABR7] | – | – | – | – | – | 0.182 h | – | – | – | – | – | – |
| MDFPQQLEACVKQANQALSRFIAPLPFQNTPVVETMQYGALLGGKRLRPFLVYATGHMFGVSTNTLDAPAAAVECIHAYSLIHDDLPAMDDDDLRRGLPTCHVKFGEANAILAGDALQTLAFSILSDADMPEVSDRDRISMISELASASGIAGMCGGQALDLDAEGKHVPLDALERIHRHKTGALIRAAVRLGALSAGDKGRRALPVLDKYAESIGLAFQVQDDILDVVGDTATLGKRQGADQQLGKSTYPALLGLEQARKKARDLIDDARQSLKQLAEQSLDTSALEALADYIIQRNK | 4.5 ± 0.14 h | 5.14 ± 0.67 h | 4.44 ± 0.056 h | 4.579 ± 0.024 h | 4.63 ± 0.38 h | 3.14 ± 0.08 h | 5.849 ± 0.0072 h | 4.46 ± 0.66 h | 6.952 ± 0.057 h | 11.5 ± 0.9 h | 11.2 ± 0.6 h | 5.75 ± 0.13 h |
| MTENIHKHRILILDFGSQYTQLVARRVRELGVYCELWAWDVTEAQIRDFNPSGIILSGGPESTTEENSPRAPQYVFEAGVPVFGVCYGMQTMAMQLGGHVEASNEREFGYAQVEVVNDSALVRGIEDALTADGKPLLDVWMSHGDKVTAIPSDFITVASTESCPFAIMANEEKRFYGVQFHPEVTHTRQGMRMLERFVRDICQCEALWTPAKIIDDAVARIREQVGDDKVILGLSGGVDSSVTAMLLHRAIGKNLTCVFVDNGLLRLNEAEQVLDMFGDHFGLNIVHVPAEDRFLSALAGENDPEAKRKIIGRVFVEVFDEEALKLEDVKWLAQGTIYPDVIESAASATGKAHVIKSHHNVGGLPKEMKMGLVEPLKELFKDEVRKIGLELGLPYDMLYRHPFPGPGLGVRVLGEVKKEYCDLLRRADAIFIEELRKADLYDKVSQAFTVFLPVRSVGVMGDGRKYDWVVSLRAVETIDFMTAHWAHLPYDFLGRVSNRIINEVNGISRVVYDISGKPPATIEWE | 5.07 ± 0.67 h | 4.31 ± 0.18 h | 4.02 ± 0.45 h | 4.39 ± 0.049 h | 4.28 ± 0.17 h | 3.24 ± 0.23 h | 5.93 ± 0.12 h | 4.17 ± 0.46 h | 6.57 ± 0.082 h | 9.65 ± 0.23 h | 12.3 ± 0.98 h | 6.09 ± 0.26 h |
| MIDLYFAPTPNGHKITLFLEEAELDYRLIKVDLGKGGQFRPEFLRISPNNKIPAIVDHSPADGGEPLSLFESGAILLYLAEKTGLFLSHETRERAATLQWLFWQVGGLGPMLGQNHHFNHAAPQTIPYAIERYQVETQRLYHVLNKRLENSPWLGGENYSIADIACWPWVNAWTRQRIDLAMYPAVKNWHERIRSRPATGQALLKAQLGDERSDS | – | 4.37 ± 1.4 h | 4.61 ± 1.6 h | 4.28 ± 0.48 h | 2.94 ± 1.1 h | 3.27 ± 0.89 h | 4.84 ± 0.4 h | 4.02 ± 1.1 h | 6.01 ± 0.55 h | 9.73 ± 0.75 h | 11.48 ± 0.07 h | 5.6483 ± 0.0048 h |
| MMILSILATVVLLGALFYHRVSLFISSLILLAWTAALGVAGLWSAWVLVPLAIILVPFNFAPMRKSMISAPVFRGFRKVMPPMSRTEKEAIDAGTTWWEGDLFQGKPDWKKLHNYPQPRLTAEEQAFLDGPVEEACRMANDFQITHELADLPPELWAYLKEHRFFAMIIKKEYGGLEFSAYAQSRVLQKLSGVSGILAITVGVPNSLGPGELLQHYGTDEQKDHYLPRLARGQEIPCFALTSPEAGSDAGAIPDTGIVCMGEWQGQQVLGMRLTWNKRYITLAPIATVLGLAFKLSDPEKLLGGAEDLGITCALIPTTTPGVEIGRRHFPLNVPFQNGPTRGKDVFVPIDYIIGGPKMAGQGWRMLVECLSVGRGITLPSNSTGGVKSVALATGAYAHIRRQFKISIGKMEGIEEPLARIAGNAYVMDAAASLITYGIMLGEKPAVLSAIVKYHCTHRGQQSIIDAMDITGGKGIMLGQSNFLARAYQGAPIAITVEGANILTRSMMIFGQGAIRCHPYVLEEMEAAKNNDVNAFDKLLFKHIGHVGSNKVRSFWLGLTRGLTSSTPTGDATKRYYQHLNRLSANLALLSDVSMAVLGGSLKRRERISARLGDILSQLYLASAVLKRYDDEGRNEADLPLVHWGVQDALYQAEQAMDDLLQNFPNRVVAGLLNVVIFPTGRHYLAPSDKLDHKVAKILQVPNATRSRIGRGQYLTPSEHNPVGLLEEALVDVIAADPIHQRICKELGKNLPFTRLDELAHNALVKGLIDKDEAAILVKAEESRLRSINVDDFDPEELATKPVKLPEKVRKVEAA | 6.66 ± 0.19 h | 5.65 ± 0.067 h | 2.2 ± 0.21 h | 2.48 ± 0.52 h | 1.82 ± 0.079 h | 1.43 ± 0.11 h | 1.86 ± 0.12 h | 2.2 ± 0.1 h | 3.64 ± 0.49 h | 2.9 ± 0.51 h | 3.65 ± 0.59 h | 2.01 ± 0.24 h |
| MLSAFQLENNRLTRLEVEESQPLVNAVWIDLVEPDDDERLRVQSELGQSLATRPELEDIEASARFFEDDDGLHIHSFFFFEDAEDHAGNSTVAFTIRDGRLFTLRERELPAFRLYRMRARSQSMVDGNAYELLLDLFETKIEQLADEIENIYSDLEQLSRVIMEGHQGDEYDEALSTLAELEDIGWKVRLCLMDTQRALNFLVRKARLPGGQLEQAREILRDIESLLPHNESLFQKVNFLMQAAMGFINIEQNRIIKIFSVVSVVFLPPTLVASSYGMNFEFMPELKWSFGYPGAIIFMILAGLAPYLYFKRKNWL [P0ABI4] | 5.99 ± 0.074 h | 6.305 ± 0.044 h | 5.99 ± 0.58 h | – | 6.4 ± 0.16 h | 3 ± 0.35 h | 6.15 ± 0.071 h | 6.07 ± 0.69 h | 11.7 ± 2 h | 11.8 ± 0.14 h | 12.6 ± 0.23 h | 5.62 ± 0.18 h |
